The assay has as its target extracellular signal-regulated kinase (ERK1/2), endogenous in mouse spinal dorsal horn (mouse (endogenous in spinal dorsal horn)) (UniProt P63085).

B1: glycine receptor α1^ins subunit, endogenous in mouse spinal dorsal horn (receptor)
chain: ARSAPKPMSPSDFLDKLMGRTSGYDARIRPNFKGPPVNVSCNIFINSFGSIAETTMDYRVNIFLRQQWNDPRLAYNEYPDDSLDLDPSMLDSIWKPDLFFANEKGAHFHEITTDNKLLRISRNGNVLYSIRITLTLACPMDLKNFPMDVQTCIMQLESFGYTMNDLIFEWQEQGAVQVADGLTLPQFILKEEKDLRYCTKHYNTGKFTCIEARFHLERQMGYYLIQMYIPSLLIVILSWISFWINMDAAPARVGLGITTVLTMTTQSSGSRASLPKVSYVKAIDIWMAVCLLFVFSALLEYAAVNFVSRQHKELLRFRRKRRHHKSPMLNLFQDDEGGEGRFNFSAYGMGPACLQAKDGISVKGANNNNTTNPPPAPSKSPEEMRKLFIQRAKKIDKISRIGFPMAFLIFNMFYWIIYKIVRREDVHNK
Regarding B1, the GlyR-IPSCs in spinal slices from formalin-injected mice, with bath application of TAT-pep-α1^ins (% of baseline) came out at 145.

Values taken from article PMC6703679.
